As usually defined, the Kd is the concentration at which binding is half-saturated. What is called koff is the rate constant with which the complex falls apart. The term kon denotes the second-order rate constant of association. The term EC50 (read off the curve) denotes the concentration at which the effect is half-maximal. Read a high EC50 (read off the curve) as a less potent agent.

These results are taken from patent publication US20250257137A1 (IMBIOLOGICS, published 2025).

The target of assay [1] is T1, HLA-G protein antigen (human, UniProt P17693 25-308).
T1 construct: also called HLA-G antigen
Briefly: SPR according to Example 1-4-1; HLA-G antigen.

The target in assay [2] is T2, HLA-G naturally expressed on JEG-3 cells (human, UniProt P17693 25-338).
T2 construct: whole, on cells; also called HLA-G expressing cells; HLA-G receptor in the cell
The assay is described as follows: flow cytometry on JEG-3 cells that naturally express HLA-G; detection anti-IgM-PE or anti-IgG Fc-FITC; MFI. Background: Flow cytometry measures light scatter and fluorescence of single cells or particles in a stream.

In assay [3] the target is T3, HLA-G-6× his tag (IMBiologics) (human, UniProt P17693 25-308).
T3 construct: also called recombinant HLA-G protein
The assay is described as follows: blocking ELISA: ILT-2 antigen coated at 150 ng/well, HLA-G-6× his added with the dilution, detection HRP anti-6× his; blocked ligand ILT-2.

In assay [4] the target is T3, HLA-G-6× his tag (IMBiologics). The assay is described as above. The source holds these as a separate data set.
In assay [5] the target is T4, Fcα/µ receptor (R&D systems) (UniProt Q8WWV6 17-450).
T4 sequence: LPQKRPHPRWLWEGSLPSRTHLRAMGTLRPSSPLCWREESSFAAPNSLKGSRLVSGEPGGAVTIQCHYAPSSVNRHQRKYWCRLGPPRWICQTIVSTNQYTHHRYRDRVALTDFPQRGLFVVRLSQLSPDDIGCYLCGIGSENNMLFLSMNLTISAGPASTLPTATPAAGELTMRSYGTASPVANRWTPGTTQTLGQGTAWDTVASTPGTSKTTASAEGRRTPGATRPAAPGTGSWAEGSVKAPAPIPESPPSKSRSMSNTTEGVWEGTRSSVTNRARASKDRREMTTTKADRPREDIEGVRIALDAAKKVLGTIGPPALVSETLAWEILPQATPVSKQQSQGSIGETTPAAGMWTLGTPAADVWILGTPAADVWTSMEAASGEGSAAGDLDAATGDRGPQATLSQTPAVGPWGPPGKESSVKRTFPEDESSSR
The assay is described as follows: ELISA, Fcα/µ receptor coated at 100 ng/well; detection HRP anti-IgM (F5µ). For orientation: In an ELISA, binding on a coated surface is turned into a signal by an enzyme label.

The target in assay [6] is T5, pIgR (polymeric Ig receptor; R&D systems) (UniProt P01833 19-638).
T5 construct: also called pIg receptor
T5 sequence (P01833 19-638 limits assumed): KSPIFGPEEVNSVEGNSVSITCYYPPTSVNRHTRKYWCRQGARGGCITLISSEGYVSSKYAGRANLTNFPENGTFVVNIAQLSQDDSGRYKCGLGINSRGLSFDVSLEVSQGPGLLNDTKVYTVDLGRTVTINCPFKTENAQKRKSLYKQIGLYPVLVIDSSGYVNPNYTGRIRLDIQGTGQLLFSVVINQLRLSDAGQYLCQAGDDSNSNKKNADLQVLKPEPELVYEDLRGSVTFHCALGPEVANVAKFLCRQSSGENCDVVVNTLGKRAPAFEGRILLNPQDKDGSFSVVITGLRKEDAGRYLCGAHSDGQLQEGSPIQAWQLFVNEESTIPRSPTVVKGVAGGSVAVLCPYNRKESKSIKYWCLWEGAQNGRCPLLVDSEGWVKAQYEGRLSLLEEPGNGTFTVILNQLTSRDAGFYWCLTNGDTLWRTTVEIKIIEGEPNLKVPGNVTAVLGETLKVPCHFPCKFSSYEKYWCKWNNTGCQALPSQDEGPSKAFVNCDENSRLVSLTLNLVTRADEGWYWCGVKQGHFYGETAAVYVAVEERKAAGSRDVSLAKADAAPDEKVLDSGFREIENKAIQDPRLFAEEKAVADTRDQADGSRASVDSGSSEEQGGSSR
The assay is described as follows: ELISA, pIgR coated at 100 ng/well; detection HRP anti-IgM (F5µ).

Assay [7] has as its target T1, HLA-G protein antigen. Briefly: ELISA on HLA-G antigen, according to Example 1-4-1.
Assay [8] concerns the target T1, HLA-G protein antigen. Briefly: ELISA according to Example 1-4-1.

Like-named read-outs stand apart in the source and are kept apart here.

B1: (A2014)2-(IgG Fc region) (antibody, V domains shown)
VH: QVQLQQSGPGLLKPSQTLSLTCAISGDSVSSNRAAWNWIRQSPSRGLEWLGRTYYRSKWYNDYAVSVQGRITLIPDTSKNQFSLRLNSVTPEDTAVYYCASVRAVAPFDYWGQGVLVTVSS
VL: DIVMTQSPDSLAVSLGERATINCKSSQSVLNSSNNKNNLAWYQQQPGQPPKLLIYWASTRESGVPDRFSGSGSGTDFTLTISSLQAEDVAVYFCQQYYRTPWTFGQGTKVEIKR
notes: also called (A2014)-(IgG Fc); (A2014)-(IgGFc) control protein
As to B1, in assay [1], the Kd was 0.0259 nM, the off-rate constant (koff) stood at 0.000305 s⁻¹ and the kon amounted to 1.18e+07 M⁻¹ s⁻¹. Further, the 50% effective concentration (EC50 (read off the curve)) in assay [2] is ~0.7 nM. Also, the “IC50 (read off the curve)” value in assay [3] was ~8 nM. Moreover, the “IC50 (read off the curve)” value in assay [4] was ~30 nM.

B2: [(CMVpHLA)2-(linker)2-(IgG Fc region)-(IgM Fc region)]5-(J chain D105K) (Fc fusion)
chain (part 1 of 2): […]
chain (part 2 of 2): QDTAIRVFAIPPSFASIFLTKSTKLTCLVTDLTTYDSVTISWTRQNGEAVKTHTNISESHPNATFSAVGEASICEDDWNSGERFTCTVTHTDLPSPLKQTISRPKGVALHRPDVYLLPPAREQLNLRESATITCLVTGFSPADVFVQWMQRGQPLSPEKYVTSAPMPEPQAPGRYFAHSILTVSEEEWNTGETYTCVVAHEALPNRVTERTVDKSTGKPTLYNVSLVMSDTAGTCY
chain: […]
notes: not shown: IgG Fc
As for B2, in assay [5], the binding result was “no binding”.

B3: [(CMVpHLA)2-(linker)2-(IgG Fc region)-(IgM Fc region)]5-(J chain R106A) (Fc fusion)
chain (part 1 of 2): […]
chain (part 2 of 2): B2 chain (part 2 of 2)
chain: […]
notes: not shown: IgG Fc
Regarding B3, in assay [5], the binding result is listed as “no binding”.

B4: [(CMVpHLA)2-(linker)2-(IgG Fc region)-(IgM Fc region)]5-(J chain R106Q) (Fc fusion)
chain (part 1 of 2): […]
chain (part 2 of 2): B2 chain (part 2 of 2)
chain: […]
notes: not shown: IgG Fc
As for B4, the binding result in assay [5] is listed as “no binding”.

B5: [(CMVpHLA)2-(linker)2-(IgG Fc region)-(IgM Fc region)]5-(J chain N107F) (Fc fusion)
chain (part 1 of 2): […]
chain (part 2 of 2): B2 chain (part 2 of 2)
chain: […]
notes: not shown: IgG Fc
For B5, in assay [5], the binding result is recorded as “no binding”.

B6: [(CMVpHLA)2-(linker)2-(IgG Fc region)-(IgM Fc region)]5-(J chain R106V) (Fc fusion)
chain (part 1 of 2): […]
chain (part 2 of 2): B2 chain (part 2 of 2)
chain: […]
notes: not shown: IgG Fc
For the molecule B6, the binding result in assay [6] is recorded as “no binding”.

B7: [(A2014)2-(IgD hinge region)2-(IgM Fc region)]6-(J chain)0 (Fc fusion)
heavy: QVQLQQSGPGLLKPSQTLSLTCAISGDSVSSNRAAWNWIRQSPSRGLEWLGRTYYRSKWYNDYAVSVQGRITLIPDTSKNQFSLRLNSVTPEDTAVYYCASVRAVAPFDYWGQGVLVTVSSASTKGPSVFPLAPSSKSTSGGTAALGCLVKDYFPEPVTVSWNSGALTSGVHTFPAVLQSSGLYSLSSVVTVPSSSLGTQTYICNVNHKPSNTKVDKKVEPKSCRNTGRGGEEKKKEKEKEEQEERETKTPECPSHTQPLGVIAELPPKVSVFVPPRDGFFGNPRKSKLICQATGFSPRQIQVSWLREGKQVGSGVTTDQVQAEAKESGPTTYKVTSTLTIKESDWLSQSMFTCRVDHRGLTFQQNASSMCVPDQDTAIRVFAIPPSFASIFLTKSTKLTCLVTDLTTYDSVTISWTRQNGEAVKTHTNISESHPNATFSAVGEASICEDDWNSGERFTCTVTHTDLPSPLKQTISRPKGVALHRPDVYLLPPAREQLNLRESATITCLVTGFSPADVFVQWMQRGQPLSPEKYVTSAPMPEPQAPGRYFAHSILTVSEEEWNTGETYTCVVAHEALPNRVTERTVDKSTGKPTLYNVSLVMSDTAGTCY
light: not shown
In assay [1], B7 returned a Kd of 0.00232 nM, an off-rate constant (koff) of 3.51e-05 s⁻¹ and a kon of 1.48e+07 M⁻¹ s⁻¹. Moreover, the “EC50 (read off the curve)” value in assay [7] is ~0.04 nM. Besides, in assay [8], the “fold improvement of EC50 against the (A2014)-(IgGFc) control protein” value is ≥ 1000 fold.
